Source: US20160031958A1, “METHODS AND COMPOSITIONS USEFUL IN MANIPULATING THE STABILITY OF RE1 SILENCING TRANSCRIPTION FACTOR” (OREGON HEALTH & SCIENCE UNIVERSITY, priority 2014, published 2016)

How the values were obtained:
endogenous REST protein = experiment: Western blot of endogenous REST protein levels in transfected E12.5 neurospheres; assay type: cell-based; settings: E12.5 mouse cortical neurospheres after transfection; MG132 4 h; compared to control peptides
Procedure: FIG. 7B is an image of a Western blot showing endogenous REST protein levels in E12.5 neurospheres after transfection. Lane 1, empty vector; lane 2, control (595-694) peptide; lane 3, REST(810-910) S861/864A peptide; lane 4, REST(810-910) WT peptide; lane 5, empty vector with MG132 treated for 4 h. The blot was probed with anti-mouse-REST antibody and anti-tubulin (loading control) antibodies.
There is a significant difference between REST (810-910) compared to control (595-694) peptide (n=5, p=0.0021) and REST(810-910) compared to S861/864A REST(810-910) (n=5, p=0.046). The difference between MG132 and REST(810-910) is not significant (n=5, p=0.7996, Sidak's multiple comparison test, error bars represent 95% confidence interval).
The Examples above used the REST (810-910) reporter as a surrogate substrate for signaling molecules that target S861/S864 on full-length REST. […]
Whole cell lysates were prepared and immunoprecipitated following the procedures in Ballas N et al, 2001 supra and Nesti E et al, Mol Biol Cell 15, 4073-4088 (2004); incorporated by reference herein. Western blots were performed by standard procedures using antibodies described below and analyzed using anti IgG conjugated to infrared dyes (ThermoFisher) on an Odyssey® infrared fluorescence imager (LiCor). […] Infrared fluorescence was detected on the Odyssey® imager (LiCor) in the 700 nm channel. […]

neural progenitor cells = experiment: Cortical neuronal migration after in utero electroporation in rat embryos; assay type: in vivo; settings: cDNA electroporated in utero at E16, harvested E18, 6 embryos, 18 cortical slices
Procedure: REST protein lacking S861/864 (negative control) and wild-type REST (810-910) peptide (experimental) were expressed in the lateral ventrical of the cortex of rat embryos (E16) by injection and in utero electroporation of the respective cDNA into neural stem cells. The embryos were then allowed to gestate for 48 hours (E18) prior to harvesting. Panel 1 and 2 are representative E18 cortical brain slices expressing REST protein lacking S861/864 (negative control) and wild-type REST protein (experimental).
FIG. 11B is a plot showing that the effect of wild type REST (810-910) peptide on neuronal migration is quantitative. […] No significant difference in neural stem cell migration between the control REST protein lacking S861/864 (negative control) and the wild-type REST (810-910) peptide (experimental) in the SVZ and the intermediate zone (IZ) (Boxes 1 and 2). […] Error bars represent standard deviation, (**P<0.001, *P<0.01 unpaired t test).

E12.5 neurospheres = experiment: Neuronal differentiation of E12.5 neurospheres (MAP2 immunostaining); assay type: cell-based, mouse; settings: neurospheres differentiated 10 d, versus control (595-694) peptide, p<0.0001
From the text: FIG. 8A is a photomicrograph of representative immuno-labeled E12.5 neurospheres transfected with REST (810-910)- or control peptide-IRES-GFP, sorted, and then allowed to differentiate for 10 d in culture. White, DAPI nuclei; Red, MAP2 antibody.
Results are from three different transfections. Fields were selected from multiple places on the cover slip, number of cells indicated on bars (p<0.0001, unpaired t test).
Previous studies indicate that persistent REST expression in progenitors inhibits neuronal differentiation. Therefore, it was assessed whether stabilization of REST, via expression of the unmutated REST (810-910) peptide in neural progenitors, would also hinder neuronal differentiation. Mouse neurosphere cultures were immunostained for Microtubule Associated […] 2 (MAP2), a marker of mature neurons, at days 0 and 10 post-transfection. On day 0 there was negligible MAP2 signal and no significant difference between the two conditions.
HEK293T cells were transfected using Lipofectamine 2000 (Life Technologies) following the manufacturer's instructions. PC12 tet, PC12 tet-on FLAG-REST, and HEK293T cell lines were maintained as described in Ballas N et al 2001 supra. […]

B1: REST (810-910) peptide: peptide encoding amino acids 810-to-910 of REST with unmutated S861/S864, expressed from cDNA (protein)
chain: ISKKPPLRKDKKEKSNMQSERARKEQVLIEVGLVPVKDSWLLKESVSTEDLAPPAPPLPKENLREEASGDQKLLNTGEGNKEAPLQKVGAEEADESLPGLA
Endogenous full-length REST protein levels (endogenous REST protein): significantly stabilized endogenous full-length REST protein
Migration of neural progenitor cells from the SVZ toward the cortical plate (CP) (neural progenitor cells): significantly less migration to the CP
MAP2-positive cells (E12.5 neurospheres): fewer MAP2-positive cells
